Here are results for four molecules from article PMC8454987 (PLoS Biology, 2021).

Data set [1] concerns the target HHV-8 gH/gL ectodomain complex (insect cell, for crystallization) (human herpesvirus 8 (HHV-8)) (UniProt F5HAK9). In words: SEC-MALS. (In general: SEC sorts molecules by how far they enter the pores of the column.)
The data set “crystal structure” deals with the molecule itself. In words: crystal structure.
Data set [2] addresses EphA2 LBD (res. 27 to 202), wild type (human, UniProt P29317 27-202). In words: BLI. The conditions noted are these: both partners purified.
Data set [3] concerns the target T1, EphA2 ectodomain (res. 27 to 534), wild type (human, UniProt P29317 27-534).
T1 construct: also called WT EphA2 ectodomain
In words: BLI. The following applies: both partners purified.

Chain of HHV-8 gH/gL ectodomain complex (insect cell, for crystallization) (human herpesvirus 8 (HHV-8)) (F5HAK9 whole entry, looked up, the tested form may be a part, one chain of several): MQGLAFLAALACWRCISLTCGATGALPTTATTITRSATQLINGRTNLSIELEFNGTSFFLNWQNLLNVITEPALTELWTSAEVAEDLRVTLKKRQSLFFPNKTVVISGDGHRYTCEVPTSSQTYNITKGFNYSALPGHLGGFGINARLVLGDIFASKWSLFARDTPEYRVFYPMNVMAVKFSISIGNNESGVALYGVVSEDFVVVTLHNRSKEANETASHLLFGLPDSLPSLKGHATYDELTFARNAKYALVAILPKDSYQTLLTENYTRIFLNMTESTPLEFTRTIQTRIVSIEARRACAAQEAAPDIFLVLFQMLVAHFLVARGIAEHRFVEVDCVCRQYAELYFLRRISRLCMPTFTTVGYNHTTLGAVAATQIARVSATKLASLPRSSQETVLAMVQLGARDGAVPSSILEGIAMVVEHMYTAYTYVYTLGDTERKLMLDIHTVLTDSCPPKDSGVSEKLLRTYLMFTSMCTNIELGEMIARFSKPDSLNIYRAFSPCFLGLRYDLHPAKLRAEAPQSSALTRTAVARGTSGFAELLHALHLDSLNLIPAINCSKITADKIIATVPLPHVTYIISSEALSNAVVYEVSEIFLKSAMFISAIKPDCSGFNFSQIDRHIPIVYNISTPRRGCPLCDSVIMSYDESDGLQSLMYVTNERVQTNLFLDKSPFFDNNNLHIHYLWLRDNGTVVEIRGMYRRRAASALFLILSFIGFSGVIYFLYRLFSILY
T1 sequence (P29317 27-534): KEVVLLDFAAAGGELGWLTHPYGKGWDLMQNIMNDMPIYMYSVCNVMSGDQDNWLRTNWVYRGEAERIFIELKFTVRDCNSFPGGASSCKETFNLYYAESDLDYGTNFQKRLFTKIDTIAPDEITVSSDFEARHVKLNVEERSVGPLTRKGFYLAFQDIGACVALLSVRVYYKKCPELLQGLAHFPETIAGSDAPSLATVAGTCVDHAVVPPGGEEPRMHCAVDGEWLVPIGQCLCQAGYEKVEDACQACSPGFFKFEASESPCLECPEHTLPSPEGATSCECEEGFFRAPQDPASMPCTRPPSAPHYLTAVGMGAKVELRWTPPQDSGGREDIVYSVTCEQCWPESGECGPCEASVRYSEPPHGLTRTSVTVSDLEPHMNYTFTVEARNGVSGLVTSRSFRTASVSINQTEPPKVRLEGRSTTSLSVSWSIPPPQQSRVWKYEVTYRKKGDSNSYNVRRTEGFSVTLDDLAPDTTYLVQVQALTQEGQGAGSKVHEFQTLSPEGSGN

For “EphA2 ligand-binding domain (residues 23 to 202), insect cell (from UniProt P29317 23-202) (domain or fragment)”, the stoichiometry N in data set [1] came to 1.

Take “EphA2 ectodomain (res. 27 to 534), wild type (from UniProt P29317 27-534) (domain or fragment)”: in data set [1], the stoichiometry N worked out at 1.

B1: EphA2 ligand-binding domain (residues 23 to 202), insect cell (domain or fragment, human, UniProt P29317 23-202, looked up)
chain: AAQGKEVVLLDFAAAGGELGWLTHPYGKGWDLMQNIMNDMPIYMYSVCNVMSGDQDNWLRTNWVYRGEAERIFIELKFTVRDCNSFPGGASSCKETFNLYYAESDLDYGTNFQKRLFTKIDTIAPDEITVSSDFEARHVKLNVEERSVGPLTRKGFYLAFQDIGACVALLSVRVYYKKCP
notes: also called EphA2 LBD; LBD
On to B1, for which the binding result in the data set “crystal structure” is “binds”.

B2: HHV-8 gH^his/gL^st wild type (mammalian cells) (complex)
chain 1: LPTTATTITRSATQLINGRTNLSIELEFNGTSFFLNWQNLLNVITEPALTELWTSAEVAEDLRVTLKKRQSLFFPNKTVVISGDGHRYTCEVPTSSQTYNITKGFNYSALPGHLGGFGINARLVLGDIFASKWSLFARDTPEYRVFYPMNVMAVKFSISIGNNESGVALYGVVSEDFVVVTLHNRSKEANETASHLLFGLPDSLPSLKGHATYDELTFARNAKYALVAILPKDSYQTLLTENYTRIFLNMTESTPLEFTRTIQTRIVSIEARRACAAQEAAPDIFLVLFQMLVAHFLVARGIAEHRFVEVDCVCRQYAELYFLRRISRLCMPTFTTVGYNHTTLGAVAATQIARVSATKLASLPRSSQETVLAMVQLGARDGAVPSSILEGIAMVVEHMYTAYTYVYTLGDTERKLMLDIHTVLTDSCPPKDSGVSEKLLRTYLMFTSMCTNIELGEMIARFSKPDSLNIYRAFSPCFLGLRYDLHPAKLRAEAPQSSALTRTAVARGTSGFAELLHALHLDSLNLIPAINCSKITADKIIATVPLPHVTYIISSEALSNAVVYEVSEIFLKSAMFISAIKPDCSGFNFSQIDRHIPIVYNISTPRRGCPLCDSVIMSYDESDGLQSLMYVTNERVQTNLFLDKSPFFDNNNLHIHYLWLRDNGTVVEIRGMYRRRAAS
chain 2: YVALPCCAIQASAASTLPLFFAVHSIHFADPNHCNGVCIAKLRSKTGDITVETCVNGFNLRSFLVAVVRRLGSWASQENLRLLWYLQRSLTAYTVGFNATTADSSIHNVNIIIISVGKAMNRTGSVSGSQTRAKSSSRRAHAGQKGK
With B2, the Kd in data set [2] and in data set [3] was under 1 nM throughout.

As usually defined, the stoichiometry N is a count of units in the complex or per binding partner. The Kd is the concentration at which binding is half-saturated. Low readings indicate higher affinity, high ones lower affinity.
